Source: publication PMC7948415

Biological target: alternative C3 convertase, C3bBb (human) (UniProt P01024)

B1: SG7.AF (natural protein)
chain: ARKHVQELLKTFRRIDFDETRKSVYLQSAKFGVQSQLREPLTKKVLNYWDDVKLSKTCLDRMVTKVNDVKETFYAGFSYACESHNQYSVDCLEAAKPSYLTALGEIRGETEKCLTTRLK
  IC50 of inhibition of AP-mediated hemolysis of rabbit erythrocytes, properdin-depleted serum against normal human serum: 6 fold
